Data as given in article PMC8427768.

Target: T1, Elk1 ETS domain (human, UniProt P19419 1-93)
T1 sequence: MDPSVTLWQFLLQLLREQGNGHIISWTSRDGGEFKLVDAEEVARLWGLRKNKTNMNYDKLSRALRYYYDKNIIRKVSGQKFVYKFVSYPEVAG
Experiment: SPR

B1: E74 (dsDNA)
DNA 1: CTGAATAACCGGAAGTAACTCATC
DNA 2: GATGAGTTACTTCCGGTTATTCAG
Kd: 0.02 ± 0.01 nM

B2: SC1 (dsDNA)
DNA 1: CGGCCAAGCCGGAAGTGAGTGCC
DNA 2: GGCACTCACTTCCGGCTTGGCCG
Kd: 0.06 ± 0.01 nM
